Data reported in US20180086849A1 (Hoffmann-La Roche, published 2018).
One block for each binder: values may come before it.

How the values were obtained:
[1] = biological target: T1, hu-MCSP(D3 domain)-avi-his (human, UniProt Q6UVK1 1582-2224, biotinylated where used for selection or for coupling to the SA chip); experiment: SPR (ProteOn XPR36), IgG KD against parental M4-3/ML2
T1 construct: also called human MCSP(D3 domain)-avi-his; human MCSP D3
T1 sequence: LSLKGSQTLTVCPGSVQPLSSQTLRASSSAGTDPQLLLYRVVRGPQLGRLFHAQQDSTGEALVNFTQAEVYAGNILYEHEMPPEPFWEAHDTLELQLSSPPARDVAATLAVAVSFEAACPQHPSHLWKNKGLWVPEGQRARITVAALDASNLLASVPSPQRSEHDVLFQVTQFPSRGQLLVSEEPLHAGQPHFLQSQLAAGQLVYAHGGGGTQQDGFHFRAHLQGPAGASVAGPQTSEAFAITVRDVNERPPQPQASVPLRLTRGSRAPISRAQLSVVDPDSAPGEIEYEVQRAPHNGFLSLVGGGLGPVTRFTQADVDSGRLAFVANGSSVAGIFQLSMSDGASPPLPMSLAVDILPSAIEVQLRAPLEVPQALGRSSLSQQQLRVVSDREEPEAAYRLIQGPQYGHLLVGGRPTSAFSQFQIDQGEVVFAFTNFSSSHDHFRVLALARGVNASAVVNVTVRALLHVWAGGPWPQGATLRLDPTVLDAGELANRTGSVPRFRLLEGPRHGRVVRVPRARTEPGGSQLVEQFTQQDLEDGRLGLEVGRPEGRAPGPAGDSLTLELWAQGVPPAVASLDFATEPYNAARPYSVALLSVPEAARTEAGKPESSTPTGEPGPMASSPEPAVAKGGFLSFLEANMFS
Experimental: (§1) Briefly, carboxymethylated dextran biosensor chips (CM5, GE Healthcare) were activated with N-ethyl-N′-(3-dimethylaminopropyl)-carbodiimide hydrochloride (EDC) and N-hydroxysuccinimide (NHS) according to the supplier's instructions. Anti-human F(ab′)2 fragment specific capture antibody was diluted with 10 mM sodium acetate, pH 5.0 at 50 μg/ml before injection at a flow rate of 10 μl/minute to achieve approximately up to 10.000 response units (RU) of coupled capture antibody. Following the injection of the capture antibody, 1 M ethanolamine was injected to block unreacted groups. For kinetics measurements, Fabs from bacterial supernatant or purified Fabs are injected at a flow rate of 10 ul/minute for 300 s and a dissociation of 300 s for capture baseline stabilization. […] The surface of the sensorchip was regenerated by injection of glycine pH 1.5 for 30 s at 90 ul/min followed by injection of NaOH for 20 s at the same flow rate. Association rates (kon) and dissociation rates (koff) were calculated using a simple one-to-one Langmuir binding model (ProteOn XPR36 Evaluation Software or Scrubber software (BioLogic)) by simultaneously fitting the association and dissociation sensorgrams. The equilibrium dissociation constant (KD) was calculated as the ratio koff/kon. […] Since CDR1 and 2 of the light chain were randomized independent from CDR3, the obtained CDRs were combined during IgG conversion.
(§2) In the IgG format affinities were measured again to the human MCSP antigen (SEQ ID NO. 390), in addition also to the cynomolgus homologue (SEQ ID NO. 389). Method exactly as described for the Fab fragments, just purified IgG from mammalian production were used.

cynomolgus MCSP D3 = biological target: T2, cynomolgus MCSP D3 (cynomolgus, UniProt Q6UVK1 1582-2224 (human entry)); experiment: as above
T2 construct: also called cynomolgus homologue; not shown: C-terminal tag
T2 chain: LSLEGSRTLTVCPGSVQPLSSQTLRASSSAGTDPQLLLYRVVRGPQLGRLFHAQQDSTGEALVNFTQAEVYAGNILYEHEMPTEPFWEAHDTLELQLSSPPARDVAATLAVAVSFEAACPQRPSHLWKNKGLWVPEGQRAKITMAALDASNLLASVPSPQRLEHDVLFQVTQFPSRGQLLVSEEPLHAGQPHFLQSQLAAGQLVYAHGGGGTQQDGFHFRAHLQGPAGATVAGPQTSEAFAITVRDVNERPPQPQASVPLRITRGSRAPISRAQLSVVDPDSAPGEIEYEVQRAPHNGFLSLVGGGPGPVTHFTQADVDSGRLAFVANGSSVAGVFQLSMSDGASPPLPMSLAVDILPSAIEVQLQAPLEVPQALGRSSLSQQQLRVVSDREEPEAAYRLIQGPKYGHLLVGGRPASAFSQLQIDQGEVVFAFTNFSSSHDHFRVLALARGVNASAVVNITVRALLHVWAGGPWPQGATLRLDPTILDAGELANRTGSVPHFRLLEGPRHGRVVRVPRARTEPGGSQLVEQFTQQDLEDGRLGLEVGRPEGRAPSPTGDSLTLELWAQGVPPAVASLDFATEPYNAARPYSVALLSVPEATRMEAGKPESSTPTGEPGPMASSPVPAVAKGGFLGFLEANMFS
Experimental: as §1, §2

[2] = biological target: T1, hu-MCSP(D3 domain)-avi-his; experiment: SPR (ProteOn XPR36), IgG captured, antigen as analyte
Experimental: Briefly, carboxymethylated dextran biosensor chips (CM5, GE Healthcare) were activated with N-ethyl-N′-(3-dimethylaminopropyl)-carbodiimide hydrochloride (EDC) and N-hydroxysuccinimide (NHS) according to the supplier's instructions. Anti-human F(ab′)2 fragment specific capture antibody was diluted with 10 mM sodium acetate, pH 5.0 at 50 μg/ml before injection at a flow rate of 10 μl/minute to achieve approximately up to 10.000 response units (RU) of coupled capture antibody. Following the injection of the capture antibody, 1 M ethanolamine was injected to block unreacted groups. For kinetics measurements, Fabs from bacterial supernatant or purified Fabs are injected at a flow rate of 10 ul/minute for 300 s and a dissociation of 300 s for capture baseline stabilization. […] Association rates (kon) and dissociation rates (koff) were calculated using a simple one-to-one Langmuir binding model (ProteOn XPR36 Evaluation Software or Scrubber software (BioLogic)) by simultaneously fitting the association and dissociation sensorgrams. The equilibrium dissociation constant (KD) was calculated as the ratio koff/kon. […]
In the IgG format affinities were measured again to the human MCSP antigen (SEQ ID NO. 390), in addition also to the cynomolgus homologue (SEQ ID NO. 389). […]

[3] = biological target: human MCSP (Melanoma-associated Chondroitin Sulfate Proteoglycan) on cells (human, UniProt Q6UVK1 30-2322); experiment: cell-based or functional assay
Sequence of human MCSP (Melanoma-associated Chondroitin Sulfate Proteoglycan) on cells (Q6UVK1 30-2322): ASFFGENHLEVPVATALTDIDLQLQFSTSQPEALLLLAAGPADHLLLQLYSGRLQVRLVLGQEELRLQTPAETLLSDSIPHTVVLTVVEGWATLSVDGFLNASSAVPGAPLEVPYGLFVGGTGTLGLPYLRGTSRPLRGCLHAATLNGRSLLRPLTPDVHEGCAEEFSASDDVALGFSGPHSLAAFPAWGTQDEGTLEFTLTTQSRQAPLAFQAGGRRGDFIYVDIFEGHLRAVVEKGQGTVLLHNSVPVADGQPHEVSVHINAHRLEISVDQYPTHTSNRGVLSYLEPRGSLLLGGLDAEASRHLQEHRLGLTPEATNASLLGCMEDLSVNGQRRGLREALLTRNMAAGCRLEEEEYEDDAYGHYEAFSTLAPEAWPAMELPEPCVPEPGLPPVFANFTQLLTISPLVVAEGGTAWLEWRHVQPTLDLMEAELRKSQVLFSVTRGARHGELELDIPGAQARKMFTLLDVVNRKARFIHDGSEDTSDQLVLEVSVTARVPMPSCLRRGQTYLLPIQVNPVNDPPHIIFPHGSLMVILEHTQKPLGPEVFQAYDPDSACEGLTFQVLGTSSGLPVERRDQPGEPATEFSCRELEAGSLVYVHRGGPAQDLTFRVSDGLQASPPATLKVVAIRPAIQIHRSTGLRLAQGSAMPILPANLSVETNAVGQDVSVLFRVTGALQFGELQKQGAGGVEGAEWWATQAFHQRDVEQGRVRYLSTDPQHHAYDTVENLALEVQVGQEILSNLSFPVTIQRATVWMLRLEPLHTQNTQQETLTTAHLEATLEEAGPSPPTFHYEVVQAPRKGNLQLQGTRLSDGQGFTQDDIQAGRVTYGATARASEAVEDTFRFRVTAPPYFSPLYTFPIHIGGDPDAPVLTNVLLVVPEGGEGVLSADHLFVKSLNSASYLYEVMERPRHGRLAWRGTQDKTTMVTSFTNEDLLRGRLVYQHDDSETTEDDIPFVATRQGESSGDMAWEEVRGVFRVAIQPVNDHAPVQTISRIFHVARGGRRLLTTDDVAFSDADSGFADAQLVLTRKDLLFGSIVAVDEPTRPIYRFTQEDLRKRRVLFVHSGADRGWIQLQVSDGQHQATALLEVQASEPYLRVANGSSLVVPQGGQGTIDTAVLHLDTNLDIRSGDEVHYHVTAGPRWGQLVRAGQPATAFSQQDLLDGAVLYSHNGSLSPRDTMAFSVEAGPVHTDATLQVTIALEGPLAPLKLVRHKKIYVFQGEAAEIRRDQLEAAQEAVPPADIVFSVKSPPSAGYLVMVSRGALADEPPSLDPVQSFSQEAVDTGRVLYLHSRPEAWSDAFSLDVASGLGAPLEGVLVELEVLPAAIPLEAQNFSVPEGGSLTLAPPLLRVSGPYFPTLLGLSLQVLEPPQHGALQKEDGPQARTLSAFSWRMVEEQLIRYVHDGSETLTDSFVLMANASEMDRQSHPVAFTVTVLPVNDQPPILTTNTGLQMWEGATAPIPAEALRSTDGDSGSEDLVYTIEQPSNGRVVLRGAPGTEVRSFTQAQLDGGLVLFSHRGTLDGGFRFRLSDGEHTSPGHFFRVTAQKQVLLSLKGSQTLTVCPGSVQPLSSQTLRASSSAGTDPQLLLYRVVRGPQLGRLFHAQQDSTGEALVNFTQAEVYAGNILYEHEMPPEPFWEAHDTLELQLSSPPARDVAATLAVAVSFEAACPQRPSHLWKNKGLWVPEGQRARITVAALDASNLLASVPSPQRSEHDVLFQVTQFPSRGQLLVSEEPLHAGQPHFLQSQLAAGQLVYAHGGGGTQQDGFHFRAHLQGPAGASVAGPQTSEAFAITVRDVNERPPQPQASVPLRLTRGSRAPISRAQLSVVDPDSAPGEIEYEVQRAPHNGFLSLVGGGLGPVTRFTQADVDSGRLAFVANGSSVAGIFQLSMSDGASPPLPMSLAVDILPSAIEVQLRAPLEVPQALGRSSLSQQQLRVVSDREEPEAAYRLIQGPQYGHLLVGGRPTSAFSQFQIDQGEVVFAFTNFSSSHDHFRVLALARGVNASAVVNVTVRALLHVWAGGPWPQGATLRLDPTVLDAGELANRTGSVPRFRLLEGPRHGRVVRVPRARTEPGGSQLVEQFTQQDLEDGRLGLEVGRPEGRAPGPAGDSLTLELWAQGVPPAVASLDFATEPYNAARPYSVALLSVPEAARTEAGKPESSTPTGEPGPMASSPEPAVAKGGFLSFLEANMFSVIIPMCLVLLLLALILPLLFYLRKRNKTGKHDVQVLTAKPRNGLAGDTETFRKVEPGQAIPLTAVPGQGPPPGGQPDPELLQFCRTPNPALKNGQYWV

Her2 on KPL-4 cells = Her2 on KPL-4 cells (human (human cell line KPL-4), UniProt P04626 23-1255); experiment: cell-based or functional assay

Comparative binding affinity - Fold increase over parent [1]: 28.6 fold
Comparative binding affinity - Fold increase over parent (cynomolgus MCSP D3): 10 fold
Kd [2]: 0.07 nM
B1: M4-3(A7)/ML2(C5) (IgG) (antibody, V domains shown)
VH: QVQLQESGPGLVKPSQTLSLTCTVSGGSITDGYYWNWIRQHPGKGLEWIGYITFDGRNNYNPSLKSRVTISRDTSKNQFSLKLSSVTAADTAVYYCADFDYWGQGTLVTVSS
VL: DIQMTQSPSSLSASVGDRVTITCRASRGIREYLNWYQQKPGKAPKLLIYYTGSLHSGVPSRFSGSGSGTDFTLTISSLQPEDFATYYCQQYSELPWTFGQGTKVEIK
notes: Human IgG1 format

B2: aVH TCB (Crossfab fragment with a CD3 binding moiety and two aVH moieties binding MCSP, P329G LALA) (bispecific antibody)
light: SASYRKR
heavy 1: HQYYTYPLFT
heavy 2: QAVVTQEPSLTVSPGGTVTLTCGSSTGAVTTSNYANWVQEKPGQAFRGLIGGTNKRAPGTPARFSGSLLGGKAALTLSGAQPEDEAEYYCALWYSNLWVFGGGTKLTVLSSASTKGPSVFPLAPSSKSTSGGTAALGCLVKDYFPEPVTVSWNSGALTSGVHTFPAVLQSSGLYSLSSVVTVPSSSLGTQTYICNVNHKPSNTKVDKKVEPKSC
EC50 [pM] 24 h of T-cell mediated killing of MV-3 cells [3]: 9120 pM
EC50 [pM] 48 h of T-cell mediated killing of MV-3 cells [3]: 8970 pM

B3: Darpin TCB (Crossfab fragment with a CD3 binding moiety and two Darpin moieties binding HER2, P329G LALA) (bispecific antibody)
light: EVQLVESGGGLVQPGGSLRLSCAASGFNIKDTYIGWVRRAPGKGTELVARIYPTNGYTRYADSVKGRFTISADTSKNTAYLQMNSLRAEDTAVYYCARTSWGGWLSGDYWGQGTLVTVSSDKTHTCPPCPAPEAAGGPSVFLFPPKPKDTLMISRTPEVTCVVVDVSHEDPEVKFNWYVDGVEVHNAKTKPREEQYNSTYRVVSVLTVLHQDWLNGKEYKCKVSNKALGAPIEKTISKAKGQPREPQVCTLPPSRDELTKNQVSLSCAVKGFYPSDIAVEWESNGQPENNYKTTPPVLDSDGSFFLVSKLTVDKSRWQQGNVFSCSVMHEALHNHYTQKSLSLSPGK
heavy 1: not shown
heavy 2: B2 heavy 2
EC50 [pM] 24 h of T-cell mediated killing of KPL-4 cells (Her2 on KPL-4 cells): 376 pM
EC50 [pM] 48 h of T-cell mediated killing of KPL-4 cells (Her2 on KPL-4 cells): 235 pM
